Data reported in the Human Domainome abundance scans (Beltran et al. 2025).
± gives the uncertainty stated by the source.

B1: Chromodomain-helicase-DNA-binding protein 5, residues 411 to 463; numbered along this chain, Q8TDI0 (parent)
chain: EEDDHMEFCRVCKDGGELLCCDACPSSYHLHCLNPPLPEIPNGEWLCPRCTCP

Variants of: B1
Assay: abundance fitness (aPCA) (normalised: wild type 0, dead -1); higher = more abundant; growth selection in yeast, the domain comes from the species named
Conditions: Homo sapiens

Point of comparison: C32Y, abundance fitness -0.846 ± 0.18. Against it:
- R49H — higher, -0.223 ± 0.11
- R49P — higher, -0.106 ± 0.063
- R49A — higher, -0.017 ± 0.056
- R49W — higher, -0.073 ± 0.064
- R49D — higher, 0.101 ± 0.049
- R49Y — higher, -0.088 ± 0.1
- R49E — higher, 0.148 ± 0.054
- R49N — higher, 0.013 ± 0.1
- R49M — higher, 0.017 ± 0.067
- R49F — higher, 0.011 ± 0.1
- R49T — higher, 0.112 ± 0.069
- R49S — higher, 0.04 ± 0.055
- R49C — higher, 0.021 ± 0.057
- R49L — higher, -0.094 ± 0.048
- R49V — higher, 0.033 ± 0.044
- R49Q — higher, 0.156 ± 0.069
- R49I — higher, -0.305 ± 0.11
- C32L — within error, -0.716 ± 0.097
- C32A — within error, -0.768 ± 0.11
- C32P — within error, -0.638 ± 0.14
- C32I — within error, -0.979 ± 0.19
- C32E — higher, -0.264 ± 0.12
- C32K — within error, -0.66 ± 0.14
- C32W — within error, -0.967 ± 0.13
- C32V — within error, -0.963 ± 0.093
- C32Q — within error, -0.72 ± 0.047
- C32N — higher, -0.395 ± 0.13
- C32S — within error, -1.05 ± 0.14
- C32G — within error, -0.985 ± 0.084
- C32R — within error, -1 ± 0.083
- C32M — within error, -0.736 ± 0.15
- C32F — within error, -0.758 ± 0.21
- P38C — within error, -0.63 ± 0.43
- P38Y — higher, 0.17 ± 0.19
- P38F — higher, -0.083 ± 0.21
- P38M — within error, -0.563 ± 0.44
- P38S — higher, -0.13 ± 0.08
- P38T — higher, -0.198 ± 0.31
- P38L — higher, 0.263 ± 0.15
- P38H — higher, -0.016 ± 0.27
- P38A — higher, 0.358 ± 0.22
- P38I — within error, -0.564 ± 0.29
- C50F — within error, -0.756 ± 0.093
- C50D — higher, -0.4 ± 0.062
- C50H — higher, 0.008 ± 0.058
- C50G — higher, -0.613 ± 0.05
- C50A — within error, -0.628 ± 0.055
- N42T — higher, 0.014 ± 0.065
- N42K — higher, -0.144 ± 0.093
- N42C — higher, 0.033 ± 0.1
- N42R — higher, -0.052 ± 0.075
- N42E — higher, -0.022 ± 0.071
- N42H — higher, -0.054 ± 0.1
- N42G — higher, 0.12 ± 0.06
- N42I — higher, -0.346 ± 0.19
- N42F — higher, -0.266 ± 0.083
- N42Y — higher, 0.059 ± 0.12
- N42M — higher, -0.137 ± 0.088
- N42S — higher, 0.058 ± 0.053
- N42A — higher, 0.011 ± 0.068
- N42W — higher, -0.142 ± 0.092
- N42Q — higher, -0.211 ± 0.15
- N42D — higher, -0.028 ± 0.049
- N42P — higher, 0.16 ± 0.075
- L37C — higher, -0.299 ± 0.098
- L37G — higher, -0.232 ± 0.063
- L37I — higher, -0.023 ± 0.096
- L37R — higher, -0.006 ± 0.049
- L37A — higher, 0.031 ± 0.043
- L37Q — higher, -0.028 ± 0.1
- L37N — higher, -0.229 ± 0.18
- L37S — higher, 0.023 ± 0.074
- L37H — higher, 0.268 ± 0.094
- L37V — higher, -0.135 ± 0.079
- L37M — higher, -0.262 ± 0.098
- L37F — higher, -0.21 ± 0.12
- L37K — higher, -0.201 ± 0.1
- L37W — higher, -0.109 ± 0.049
- L37Y — higher, -0.109 ± 0.07
- L37E — higher, -0.041 ± 0.099
- L37P — higher, -0.113 ± 0.077
- L37T — higher, -0.005 ± 0.071
- L46D — within error, -0.65 ± 0.19
